According to a protein production outcome set (Wang et al. 2014):

Experiment: label from the status in PepcDB records

For “KREHAKQHGMIRTEITGAEIAEEMEKERRLFQLQMCEYLIKVNEIKTKKGVDLLQNLIKYYHAQCNFFQDGLKTADKLKQYIEKLAADLYNIKQTQDEEKKQLTALRDLIKSSLQLDQKESRRDSQSRQGGYSMHQLQGNKEYGSEKKGYLLKKSDGIRKVWQRRKCSVKNGILTISHATSNRQPAKLNLLTCQVKPNAEDKKSFDLISHNRTYHFQAEDEQDYVAWISVLTNSKEEALTMAFRGEQSAGENSLEDLTKAIIEDVQRLPGNDICCDCGSSEPTWLSTNLGILTCIECSGIHREMGVHISRIQSLELDKLGTSELLLAKNVGNNSFNDIMEANLPSPSPKPTPSSDMTVRKEYITAKYVDHRFSRKTCSTSSAKLNELLEAIKSRDLLALIQVYAEGVELMEPLLEPGQELGETALHLAVRTADQTSLHLVDFLVQNCGNLDKQTALGNTVLHYCSMYSKPECLKLLLRSKPTVDIVNQAGETALDIAKRLKATQCEDLLSQAKSGKFNPHVHVEYEWNLRQEEIDESDDDLDDKPSPIKKERSPRPQSFCHSSSISPQDKLALPGFSTPRDKQRLSYGAFTNQIFVSTSTDSPTSPTTEAPPLPPRNAGKGPTGPPSTLPLSTQTSSGSSTLSKKRPPPPPPGHKRTLSDPPSPLPHGPPNKGAVPWGNDGGPSSSSKTTNKFEGLSQQSSTSSAKTALGPRVLPKLPQKVALRKTDHLSLDKATIPPEIFQKSSQLAELPQKPPPGDLPPKPTELAPKPQIGDLPPKPGELPPKPQLGDLPPKPQLSDLPPKPQMKDLPPKPQLGDLLAKSQTGDVSPKAQQPSEVTLKSHPLDLSPNVQSRDAIQKQASEDSNDLTPTLPETPVPLPRKINTGKNKVRRVKTIYDCQADNDDELTFIEGEVIIVTGEEDQEWWIGHIEGQPERKGVFPVSFVHILSD”, the protein production was “not failed”.

For “MGHHHHHHSHMNSDSECPLSHDGYCLHDGVCMYIEALDKYACNCVVGYIGERCQYRDLKWWELR”, the protein production was “failed”.

With “MNTTEFDGISHAEGLCDKEFIGKAISYLYRYGQIYIGKKIEPYGIGSGQFPFLMRLYREDGINQESLSDYLKIDKGTTARAIQKLVDEGYVFRQRDEKDRRSYRVFLTEKGKKLEPDMKKIASEWGEILFSSFDDRQRREITNSLEIMFENGLKIM” the protein production was “not failed”.

In the case of “PEAERSTISLTRLHATIQNAPGVLGLVCTIIGEAGGNIVNLRMHHRQSDFFDTDIDVEVRDAKHLTNIQAALRACPSVETVDRTR”, the protein production is reported as “failed”.

In the case of “MSLILESLVTTLDEQGRINLAPLGPIVLPPQSPGGLPQFLLRPYEGSTTCDNLLASGNAVIHVIDDALLIAKTAIGKVDASDLVVPIPGLEDTHVRLKRCHRWFAVRVTQRAGTPPRHELTARCLASGLVDPFFGFNRAKHAVIEAAVAATRLHLLPPEEIEEELERARIAIEKTGGEPEREALQLIRRHVRESSISEGHHHHHH”, the protein production is reported as “not failed”.

With “MSKVKIELFTSPMCPHCPAAKRVVEEVANEMPDAVEVEYINVMENPQKAMEYGIMAVPTIVINGDVEFIGAPTKEALVEAIKKRL” the protein production was “not failed”.

With “MTPMKTYDLIVIGTGPGGYHAAIRAAQLGLKVLAVEAGEVGGVCLNVGCIPTKALLHAAETLHHLKVAEGFGLKAKPELDLKKLGGWRDQVVKKLTGGVGTLLKGNGVELLRGFARLVGPKEVEVGGERYGAKSLILATGSEPLELKGFPFGEDVWDSTRALKVEEGLPKRLLVIGGGAVGLELGQVYRRLGAEVTLIEYMPEILPQGDPETAALLRRALEKEGIRVRTKTKAVGYEKKKDGLHVRLEPAEGGEGEEVVVDKVLVAVGRKPRTEGLGLEKAGVKVDERGFIRVNARMETSVPGVYAIGDAARPPLLAHKAMREGLIAAENAAGKDSAFDYQVPSVVYTSPEWAGVGLTEEEAKRAGYKVKVGKFPLAASGRALTLGGAEGMVKVVGDEETDLLLGVFIVGPQAGELIAEAALALEMGATLTDLALTVHPHPTLSESLMEAAEAFHKQAIHILNR” the protein production was “not failed”.

For “MNNLQTKFPHIAIKLNEPLSKYTYTKTGGAADVFVMPKTIEEAQEVVAYCHQNKIPLTILGNGSNLIIKDGGIRGVILHLDLLQTIERNNTQIVAMSGAKLIDTAKFALNESLSGLEFACGIPGSIGGALHMNAGAYGGEISDVLEAATVLTQTGELKKLKRSELKAAYRFSTIAEKNYIVLDATFSLALEEKNLIQAKMDELTAAREAKQPLEYPSCGSVFKRPPGHFAGKLIQDSGLQGHIIGGAQVSLKHAGFIVNIGGATATDYMNLIAYVQQTVREKFDVELETEVKIIGEDK”, the protein production was “not failed”.

For “MLKQRIITALILLPIALCGFFLLEGSGFALFIGLVVSLGAWEWARLAGFEAQPARVAFAVVVAALLFLMHLVPGVAPWVLGAAVLWWALATYLVLTYPRSSEQWSGAAPKLLIGLLILLPAWQGLVFIKQLPLGNWLIMAVMVLVWGADIGAYFSGKAFGKRKLAPQVSPGKSWEGVYGGLALSLVITAVVGLVRDWTLGQMILGLLGAAIVVFISVVGDLTESMFKRQSGIKDSSNLLPGHGGVLDRIDSLTAAIPVFAVLLWMAAL”, the protein production was “failed”.

With “MSTATLPHTVGKRLFRQTLLLALALSVVFSAVFTVVEYYRSKVSLNESVELLKKTHLDAITAALWSLDRQQIAAQIDGIHHYPFISYVAVVDQGGVVVESGTRSELFGDVRRIDLTATYNGRQVSLGSLYLEIDRQAIMRDALSTAAVTLLFQTLTITIVMLFTFMLFERQVTRHLAAAADYFTSFGFARVQQPLQLDKHRYGDEIDALVEAFNRMRESLAVAYQQQQGMLQAVRESEALLRAIARRIPNGGVWVVDTDGRYIMFEGSLVESLGLSGQEALGRMPGDLFGEPLADRLVGCYRLALAGGTLSEEIEYRERVLWIQFAPLEDEHGAVMAAVALGIDVTERRQAEAERREMLQRLGQAHKMEAVGRLAGGIAHDYNNKLTVILGYAHVLKLTGFQSKEAPEQLDQIIRAAEHSRDITRQLLAFTRSERVNPVRVDLNRLISQSSKSLTRLIGEDITLSHVAGADLWPVRIDPTQADQLLMNLVMNARDAIAGTGSVTIATSNVVLDRATVRHLQGASPGEYVLMTVSDTGCGMDPEVMEHIFEPFYTTKEMGKGTGLGLATVYGIVRQNGGAISVESEPGGGSVFSIYLPRFVGESHDVRRLGEVDETLPARTTLLVDDDDAVRDITALMLRRLGHTVITASDPDEAIHLCQQPGIVVDLILTDVIMPSMNGREMVRSILSHQKAAKVLYMSGYPADVVEGRGAVDADARLLSRLLKLK” the protein production was “failed”.

With “MASSSSSSEHKVFLSFRREDTGRTFVSHLYRSLDQKEIRTYKFENQQAGDGKRISSEVKQAINESRIAVVVISENYVSSVLCLDVLAKIIERLPLIKIETVFYEVDPGDLTRPTGKFADDFRRHEARENRRTVNRWRDALDQLVSITNSNFCSRNWEDDSKMIDDLIIRLINIYFSKYYTPDVDIIAETTVGLDASVLGLMTDIDMKYKLNSLSGSVESGFGLERYALEATSVMDDMSNESPSPTSDDSNGLVGMYRHKKAVYGLLDLESKNQVRTIGIWGFQGVGKTTLAECVFDDISSHFQHYCFLTNANKIYQNRISPSLLKHLTRRRSSEDIFDAIKPSLVNRKVLFVVDGVDATYNEQFNDAMKVTRWLGPGSRIIMTSRFKSSLKFGGAKYEMECLRYEEALQLFSLYAFKKTYPLIGFELFSIRAVHFAGRLPLSLKVLGSFLYDKDEESWKRTLHKLEASQDNDRRYVSNYIGAGEYLPRRQIELEQYVSPDEEEYSPSYIMSL” the protein production was “failed”.

For “MNKTLIAAAVAGIVLLASNAQAQTVPEGYQLQQVLMMSRHNLRAPLANNGSVLEQSTPNKWPEWDVPGGQLTTKGGVLEVYMGHYMREWLAEQGMVKSGECPPPYTVYAYANSLQRTVATAQFFITGAFPGCDIPVHHQEKMGTMDPTFNPVITDDSAAFSEQAVAAMEKELSKLQLTDSYQLLEKIVNYKDSPACKEKQQCSLVDGKNTFSAKYQQEPGVSGPLKVGNSLVDAFTLQYYEGFPMDQVAWGEIKSDQQWKVLSKLKNGYQDSLFTSPEVARNVAKPLVSYIDKALVTDRTSAPKITVLVGHDSNIASLLTALDFKPYQLHDQNERTPIGGKIVFQRWHDSKANRDLMKIEYVYQSAEQLRNADALTLQAPAQRVTLELSGCPIDADGFCPMDKFDSVLNEAVK”, the protein production was “not failed”.

For “MYNILLIFIAFLLVLLNAFFVSAEFGMVKLRATRIQAIKENYGLRGRILEQVHQNLDAYLSACQLGITLASLGLGWIGEPAFAELLGPLFVALGISSVHIVTISSFFIAFFLISFLHIVIGELMPKSIAIRQSELISIWTAVPLYWFYWIMYPAIWLLNTCSNFFLKLSGMDIKNEYEGFYSSEELKLILSGQHLQSELKEDEREILEHTLDLAELNVTEVMRPEDEMIIIDINEPFETIKDKILKYRYSRYPVYDSGTKEMIGVIHVKDLFADLLLQKNINTLKPYVRPVLKVSHKLPAMDLLRKFRAGMPHFALVYKHKSSLLGFVTLDNLLHILIGRIKDEFHKTHEDWVKNSDGTITTKGDCSLYSLERALDCDITLSPDEEELNTLYGLIITRHGKLPNEGEIIQFVEFDALIEKVQDSFITKIKVFPKIKN”, the protein production was “failed”.

For “MQKVTLGLLVFLAGFPVLDANDLEDKNSPFYYDWHSLQVGGLICAGVLCAMGIIIVMSAKCKCKFGQKSGHHPGETPPLITPGSAQS”, the protein production was “failed”.

With “MLDAAIKALTQILSPPMRSILWRSVGFALALIAVAAIGLQRLLSWAATSSELWAEAALGGFQTPLNILSWVLSIAAGLGIVVGAVFLMPAVTSLVAGIFVDEAAEHVERESYPHEAPGVALPIGLATWETVKTALLTILVYLVALPFLFVAGAGAIVFFVATAWLLGREYFELAAMRFRTAPEAKAMRRDNATTVFIGGLIIAAFVSIPIVNLATPLFGMAFMVHLHKRLSGSRPEVLAPDQRSMLR” the protein production was “failed”.

In the case of “MSLLTEVETYVLSIIPSGPLKAEIAQKLEDVFAGKNTDLEALMEWLKTRPILSPLTKGILGFVFTLTVPSERGLQRRRFVQNALNGNGDPNNMDRAVKLYKKLKREITFHGAKEVALSYSTGALASCMGLIYNRMGTVTTEVAFGLVCATCEQIADSQHRSHRQMATITNPLIRHENRMVLASTTAKAMEQMAGSSEQAAEAMEVANQARQMVQAMRTIGTHPNSSAGLRDNLLENLQAYQKRMGVQMQRFK”, the protein production is reported as “not failed”.

In the case of “MQKKTVGLLLASAGPFLWGSSGTVAQHLFDTTTISPLWLVAVRMLVSGGLLILYGFSRRLPVMVVFHDWRATVRLIVFSLFGMAGVQLTYFMAISTGNAAMAAILQFLSPVMIIIFITATTWQLPGKVDVISVVSAIAGTVLIVTEGHTDSLALPVIAIIWGLLAAVGATIYTLMPTKLLKVYGATPIVGWSMLIGGGLVLVGTGAWHHSPQLTWVAWGQVGFVVIFGTMLAYLFFLQSLEYILPTTASVLGAIEPLAATILSVLFLHVHFNWVGLIGAIMIVGVTILQFAATRANQFVSK”, the protein production is reported as “failed”.

In the case of “MSTRWLLLAAFAAGAALFSSFLKALFFAACLACAFRPLSRRLEAWRGPLVAAGLTTALAGMCLVIPVAVVGSLAAPQAVQGLAVLDGLRESNWFTSPEAQQLVDDIDARLRDLPGLEGGLRGLARNAAGILGTAARTALAGGVGLAGGALNAVLQGFIVLMLIFVFTAYARHIQRFALALLPMPRAMLDRCVTAFRGAVVGVLAGVVLVAAIQGVLCGIGFAVAGVPQAAFWGFIAAMVAPIPVVGTMAVWIPACAWLWFAGKTTAAIGLVLWSAIIVSGSDNILRPIFLKTGIEAPIALIFLAIICGLAAFGPMGLLLGPVLLALGLQLAREGLPGAPGVSGVSGAVEPRE”, the protein production is reported as “failed”.

In the case of “MKMEARQKQNSFTSKMQKIVNHRAFTFTVIALILFNALIVGIETYPRIYADHKWLFYRIDLVLLWIFTIEIAMRFLASNPKSAFFRSSWNWFDFLIVAAGHIFAGAQFVTVLRILRVLRVLRAISVVPSLRRLVDALVMTIPALGNILILMSIFFYIFAVIGTMLFQHVSPEYFGNLQLSLLTLFQVVTLESWASGVMRPIFAEVPWSWLYFVSFVLIGTFIIFNLFIGVIVNNVEKAELTDNEEDGEADGLKQEISALRKDVAELKSLLKQSK”, the protein production is reported as “failed”.

With “MQSKAHALTFTVLPITQKTDQWSVKVSEAKNVKEFTRPHKGEYQVYSLGSQKYRGKSSYSGCAIVLEHHHHHH” the protein production was “not failed”.
